Test results reported in paper PMC10375191, “Transformable Neuropeptide Prodrug with Tumor Microenvironment Responsiveness for Tumor Growth and Metastasis Inhibition of Triple‐Negative Breast Cancer” (Advanced Science, 2023).
Starred links: 1 amine or outer side, 2 acyl side, 3 side chain; linkers in the order of their positions; H or OH if unused. Residues, ends and D or L forms follow the SMILES beside them. *: point of attachment. Doxorubicin(3'-N) = COc1cccc2c1C(=O)c1c(O)c3c(c(O)c1C2=O)C[C@@](O)(C(=O)CO)C[C@@H]3O[C@H]1C[C@H](N*)[C@H](O)[C@H](C)O1; Suc = O=C(CCC(=O)[*:2])[*:1]

Key:
[1] = molecular target: T1, matrix metalloproteinase‐2 (MMP‐2) (Homo sapiens, UniProt P08253); assay: MMPs-responsive cleavage of DOX-P18 by MMP-2 (HPLC, MS, fluorescence); format: in vitro ADME; settings: 1 mg mL^−1 DOX-P18 with 1 µg mL^−1 MMP-2, 37 °C; HPLC at 6, 12, 24, 72 h, monitored at 500 nm; product DOX-P3 identified by MS
T1 construct: purchased Novoprotein Scientific Inc. (Shanghai, China)
T1 sequence (P08253 110-660): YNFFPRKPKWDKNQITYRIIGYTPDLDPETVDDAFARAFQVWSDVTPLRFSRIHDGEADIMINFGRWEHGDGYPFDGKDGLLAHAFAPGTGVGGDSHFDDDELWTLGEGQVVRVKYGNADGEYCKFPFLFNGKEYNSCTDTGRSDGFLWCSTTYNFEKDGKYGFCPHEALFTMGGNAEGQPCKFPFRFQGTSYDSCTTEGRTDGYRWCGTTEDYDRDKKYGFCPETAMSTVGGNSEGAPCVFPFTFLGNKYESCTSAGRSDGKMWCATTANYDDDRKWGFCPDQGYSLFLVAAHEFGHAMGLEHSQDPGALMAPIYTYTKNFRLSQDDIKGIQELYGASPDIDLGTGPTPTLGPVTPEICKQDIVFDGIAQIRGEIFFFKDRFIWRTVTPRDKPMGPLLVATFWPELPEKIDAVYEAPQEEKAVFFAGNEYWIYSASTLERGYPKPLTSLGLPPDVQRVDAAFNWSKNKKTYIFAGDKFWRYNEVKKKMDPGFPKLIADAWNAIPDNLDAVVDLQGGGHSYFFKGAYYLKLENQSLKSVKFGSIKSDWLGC
Description: (§1) The enzymatic reaction process was monitored by HPLC at 6, 12, 24, and 72 h.
(§2) Doxorubicin hydrochloride (DOX·HCl), trifluoroacetic acid (TFA), and anhydrous N,N-Dimethylformamide (DMF) were purchased from Aladdin (Shanghai, China).
(§3) Thioanisole (TA), 1,2-ethanedithiol (EDT), and phenol were obtained from Macklin (Shanghai, China). 4-methylmorpholine (NMM), N,N’-diisopropylcarbodiimide (DIC), and 1-hydroxybenzotriazole (HOBt) were purchased from OKA (Beijing, China). Rink amide methylbenzhydrylamine (MBHA) resin, Wang resin and all Fmoc-protected amino acids were obtained from NJPeptide (Nanjing, China). Ethanol, diethyl ether, acetonitrile (ACN), and methanol were purchased from Sinopharm Chemical Reagent Co., Ltd (Shanghai, China). Piperidine, p-nitrophenol, and succinic anhydride (Succ) were obtained from Sigma-Aldrich (Shanghai, China). Recombinant human matrix metalloproteinase-2 (MMP-2) and matrix metalloproteinase-9 (MMP-9) produced by Novoprotein Scientific Inc. (Shanghai, China) are supplied as a 0.2 μm filtered buffer mixture of 20 mM Tris-HCl, 2 mM CaCl2, 150 mM NaCl, 0.05 % Brij 35 (w/v), pH 7.5, and their specific activity is >1300 pmol/min/µg as measured under the described conditions. All commercial reagents and HPLC solvents were used with […]

[2] = molecular target: T2, matrix metalloproteinase‐9 (MMP‐9) (Homo sapiens, UniProt P14780); assay: MMPs-responsive cleavage of DOX-P18 by MMP-9 (HPLC, MS, fluorescence); format: in vitro ADME
T2 construct: purchased Novoprotein Scientific Inc. (Shanghai, China)
Description: as §1, §2, §3

[3] = Morphological transformation / particle size by DLS and TEM in PBS of different pH; format: physicochemical; settings: DLS
MCF‐10A cells = assay: CCK-8 cell viability assay, MCF-10A; format: cell-based, human; settings: 24 h
Description: (§4) MDA‐MB‐231 cells were incubated in 96‐well plates for 24 h (1 × 10^4 cells per well). […] At the appointed time, 10 µL CCK‐8 solution was dropped into each well and further co‐incubated with treated cells for 2 h. The absorbance values at 450 nm were measured by an automated plate reader (iMark (168‐1130), Biorad, USA). The IC50 values were obtained from Microsoft Excel's FORECAST formula.
mammary epithelial cell line MCF-10A after 24 h incubation. Data are presented as
means ± standard deviations (n = 3).
(§5) (1 picture or pasted object on this page, not shown here)

MCF‐7 cells = assay: CCK-8 cell viability assay, MCF-7; format: cell-based, human; settings: MCF-7, 24 h
Description: as §4
breast cancer cell line MCF-7 after 24 h incubation. Data are presented as means ±
standard deviations (n = 3).
as §5

MDA‐MB‐231 cells = assay: Wound healing experiment; format: cell-based, human
Description: Wound healing culture inserts were tightly stuck on 12‐well plates and 2 × 10^4 MDA‐MB‐231 cells were seeded in the gap of the culture inserts to incubate for 24 h. […] After incubation for 12 and 24 h, the wound healing area was photographed by a microscope (DFC 450C, Leica, Germany).

[4] = system: MDA‐MB‐231 xenograft model; assay: In vivo antitumor evaluation, MDA-MB-231 xenograft; design: species or system mouse
Source text: All the animal experimental procedures were recognized and approved by the Regional Ethics Committee for Animal Experiments at Ningbo University, China (Permit NO. SYXK (Zhe) 2019‐0005). The triple‐negative breast cancer (TNBC) xenograft tumors were established on female BALB/c nude mice (≈15 g) by subcutaneous injection of MDA‐MB‐231 cells (5 × 10^6 cells in each mouse). TNBC metastasis models were constructed by injecting MDA‐MB‐231‐luc cells (1 × 10^5 cells in each mouse) through the tail vein to female BALB/c nude mice. The day that MDA‐MB‐231‐luc was injected was set as D0. In vivo imaging system (IVIS) (Lumina XRMS Ш, PerkinElmer, USA) was utilized to identify the tumor metastasis at D12.
When the tumor volume of BALB/c mice reached ≈70 mm^3 (V = L × W × W/2), the tumor‐bearing mice were randomly divided into seven groups (n = 5 for each group). […] 100 µL drug was injected intravenously through the tail vein every other day for a total of five times. The day that the first injection was given was set as D0. Tumor size and mouse weight were measured every 2 days from the day that treatment started until D26.

T2 sequence (P14780 94-707): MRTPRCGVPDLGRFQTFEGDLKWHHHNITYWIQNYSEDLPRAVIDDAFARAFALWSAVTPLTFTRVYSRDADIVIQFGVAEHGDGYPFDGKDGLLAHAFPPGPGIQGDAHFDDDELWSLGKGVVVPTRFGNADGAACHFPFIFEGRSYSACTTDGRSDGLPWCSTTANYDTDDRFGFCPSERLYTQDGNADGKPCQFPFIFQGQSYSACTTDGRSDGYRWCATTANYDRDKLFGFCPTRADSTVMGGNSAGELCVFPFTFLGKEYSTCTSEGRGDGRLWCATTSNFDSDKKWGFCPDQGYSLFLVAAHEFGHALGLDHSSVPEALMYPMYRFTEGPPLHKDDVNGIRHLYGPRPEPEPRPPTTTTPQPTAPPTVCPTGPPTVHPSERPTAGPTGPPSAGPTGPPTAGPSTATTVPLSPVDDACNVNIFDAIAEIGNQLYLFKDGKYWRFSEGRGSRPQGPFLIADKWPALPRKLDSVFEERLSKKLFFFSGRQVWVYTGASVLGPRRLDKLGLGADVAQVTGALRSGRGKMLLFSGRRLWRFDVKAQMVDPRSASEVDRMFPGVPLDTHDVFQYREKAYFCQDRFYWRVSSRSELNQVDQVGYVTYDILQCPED

CC[C@H](C)[C@H](NC(=O)[C@@H]1CCCN1C(=O)[C@H](CC(N)=O)NC(=O)[C@H](CC(N)=O)NC(=O)[C@H](Cc1ccc(O)cc1)NC(=O)[C@H](Cc1c[nH]cn1)NC(=O)[C@H](CCCNC(=N)N)NC(=O)CNC(=O)[C@H](CCCNC(=N)N)NC(=O)[C@@H](NC(=O)CNC(=O)[C@H](CC(C)C)NC(=O)[C@@H]1CCCN1C(=O)CCC(=O)N[C@H]1C[C@H](O[C@H]2C[C@](O)(C(=O)CO)Cc3c(O)c4c(c(O)c32)C(=O)c2c(OC)cccc2C4=O)O[C@@H](C)[C@H]1O)C(C)C)C(=O)N[C@@H](Cc1c[nH]c2ccccc12)C(=O)N[C@@H](CCCNC(=N)N)C(=O)N[C@@H](CCC(N)=O)C(=O)N[C@@H](CCCNC(=N)N)C(=O)N[C@@H](Cc1ccc(O)cc1)C(N)=O [DOX‐P18] ({Doxorubicin(3'-N)-Suc}-PLGVRGRHYNNPIWRQRY-NH2)
Enzymatic cleavage by MMP-2 [1]: efficiently cleaved | Cleavage efficiency of MMP-9 relative to MMP-2 ([2]; 0.1 µg mL^−1 MMP-2 or MMP-9, 20 µg mL^−1 DOX-P18, 12 and 24 h, fluorescence intensity at 592 nm (Ex 488 nm)): about 10 times | Enzymatic cleavage by MMP-9 ([2]; 1 mg mL^−1 DOX-P18 with 1 µg mL^−1 MMP-9, 37 °C, HPLC at 6, 12, 24, 72 h, monitored at 500 nm, product DOX-P3 identified by MS): efficiently cleaved | Aggregation state (particle size distribution) ([3]; PBS buffer pH 7.4): nanoparticles could only be detected | Aggregation state (particle size distribution) ([3]; PBS, neutral and weakly acidic media (pH ≤ 6.5; 6.5, 6.0, 5.0)): monomolecular dispersion | IC50 (cytotoxicity), in words (MCF‐10A cells): higher | IC50 (cytotoxicity), in words (MCF‐7 cells): higher | Wound healing rate (MDA‐MB‐231 cells; MDA-MB-231, 5 µg mL^−1, 12 h, PBS group 50.8%): 40.3% | Wound healing rate (coverage rate) (MDA‐MB‐231 cells; MDA-MB-231, 5 µg mL^−1, 24 h, PBS group defined as 100%): 71.5% | Death / body weight in tumor-bearing mice ([4]; MDA-MB-231 tumor-bearing nude mice, DOX-P18 up to 100 mg kg^−1 (20 mg kg^−1 DOX), DOX at 10 and 20 mg kg^−1): no death or obvious weight losses | Tumor growth inhibition ([4]; MDA-MB-231 xenograft, 100 mg kg^−1 (equivalent to 20 mg kg^−1 DOX) i.v. every other day, five times, n = 5): significant inhibitory efficacy | Histological analysis of major organs after treatment ([4]; MDA-MB-231 xenograft, 24 days, five administrations, 5 mg kg^−1 DOX or DOX equivalent): without obvious lesions in other organs
